In one series the test system is ts13 BHK tk− cells. In words: ED50 determination with GCV or ACV in transfected BHK tk− cells (Alamar Blue). Conditions: pooled G418-resistant transfectants, 4 days on nucleoside analog. The series is classed as cell-based, baby hamster. The protocol:
Briefly, the cell transfections are performed as follows. Approximately 5×10^5 ts13 BHK tk^− cells (ATCC CRL-1632) are plated on 100 mm dishes in DMEM+10% calf serum. For each transfection 1 μg of pSV2neo and 10 μg of a pCMV construct (pCMV, pCMV:TK-wrong (HSVTK in the wrong orientation relative to the promoter), pCMV:HSVTK, pCMV:30, pCMV:75 or pCMV:132 DNA) in 0.25M CaCl2 are mixed with 0.5 ml 2×BBS (see Chen and Okayama) and preincubated at 37° C. at 2.5% CO2 […]. The CaCl2/DNA mix is added dropwise to the plates and mixed in well. After a 24 hour incubation at 37° C. in a 2.5% CO2 wet incubator, the cells are rinsed twice with Dulbecco PBS minus Ca/Mg and fed with fresh DMEM+10% calf serum. Plates are incubated at 37° C. with 6% CO2. After 72 hours post-transfection the cells are split 1:3 and plated in DMEM+10% calf serum containing G418 at 600 μg/ml.
The cells are selected on G418 (600 μg/ml) at 37° C. for 17 days. During this time the plates are pooled (for each DNA transfection) and split three times at a ratio of 1:3. Approximately 30-40 clones are selected in this manner for each transfected DNA containing a tk gene in the correct orientation. The pCMV and pCMV:TK-wrong transfections yielded between 130 and 140 clones each. […]
Determination of the fluorescence level of cells incubated in the presence of Alamar Blue directly relates to cell viability.

Series [1] in a line: Enzyme kinetics of purified TK, thymidine. Format: biochemical. Conditions: substrate thymidine. The protocol: (§1) A single colony of pET23d:HSVTK, pET23d:30, pET23d:75 and pET23d:132 in BL21(DE3)tk^− cells is used to inoculate 5 ml of M9ZB medium (1% tryptone, 0.5% NaCl, 1×M9 salts, 1 mM MgSO4, 100 μM CaCl2 and 0.2% glucose) containing cabenicillin at 20 μg/ml. The culture is incubated at 37° C. overnight. The following day the 5 ml culture is used to inoculate 1L M9ZB+cabenicillin at 20 μg/ml and the culture allowed to grow at 37° C. to OD600 0.1. At that point IPTG is added to 0.4 mM and the culture incubated a further 3 hours. The cells are chilled on ice, pelleted by centrifugation and the pellets washed once in cell wash buffer (50 mM Tris, pH 7.5, 5mM EDTA, 10% sucrose) prior to freezing the pellets at −70° C. […]
(§2) A thymidylyl-sepharose column is used for a one step purification procedure (see Example 2). […] The extent of purification is monitored by Coomassie stained SDS:PAGE analysis and the concentration of purified protein determined using the BioRad Reagent (Bradford Reagent). […]
(§3) The kinetics of thymidine, ganciclovir and acyclovir phosphorylation by the wild-type, mutant 30 and 75 thymidine kinase enzymes with variant concentrations of radioactive nucleoside substrate are determined essentially as described in Example 3. Km and Vmax values are determined from double reciprocal plots and kcat values are calculated using the equation Vmax=kcat [Eo] where [Eo] is the total enzyme concentration. […]

Series [2] is described as follows: Enzyme kinetics of purified TK, ganciclovir. The series is classed as biochemical. The settings on record: substrate ganciclovir. The protocol:
as §1, §2, §3

The subject of the next series is BHK tk− cells. In words: Sensitivity of guanylate kinase transfectant pools to ACV in TK expressing clones. Format: cell-based, baby hamster. The settings on record: three days with ACV. The protocol:
pREP8-7, pREP8-7:hgmk and pREP8-7:mgmk are used to transfect BHK tk, TK-transfected clone C3 and 75-transfected clone D4. Histidinol is used to select pools of stable transfectants and to isolate individual clones.
As in Example 8, pools of transfectants are placed in 96 well microtiter dishes at 1000 cells/well. Eight replicates are incubated for three days in the presence of various GCV or ACV concentrations.

Read-outs that look alike come from different tables or passages of the source.

“WT: wild-type HSV-1 thymidine kinase with McKnight sequence (pT7:HSVTKII and derived vectors)”: the EC50 was determined as 25 µM in the series on ts13 BHK tk− cells (read-out: ED50 ACV) and 20 µM in the series on ts13 BHK tk− cells (read-out: ED50 GCV). Further, the Km in series [1] is 0.38 µM; in series [2] it was 47.6 µM. Moreover, the values for the kcat result in series [1] (per active site) and in series [2] (per active site) were “.230 s⁻¹” and “.050 s⁻¹”, respectively.

B1: Guanylate kinase: human or murine guanylate kinase expressed from pREP8-7 in wild-type TK clone C3 cells (protein, UniProt Q16774 2-197, looked up)
Guanylate kinase: SGPRPVVLSGPSGAGKSTLLKRLLQEHSGIFGFSVSHTTRNPRPGEENGKDYYFVTREVMQRDIAAGDFIEHAEFSGNLYGTSKVAVQAVQAMNRICVLDVDLQGVRNIKATDLRPIYISVQPPSLHVLEQRLRQRNTETEESLVKRLAAAQADMESSKEPGLFDVVIINDSLDQAYAELKEALSEEIKKAQRTGA
Regarding B1, the “increased sensitivity to ACV relative to TK expression alone” value in the series with BHK tk− cells was “approximately 2 fold”.

One may read the Km as the concentration of substrate that gives half-maximal velocity.

Source of the values: patent US6451571B1, “Thymidine kinase mutants” (University of Washington, priority 1994, dated 2002).
